The record followed here is the nanobody polyreactivity screen of Harvey et al. (2022).

A short description of the data set: yeast display, Sf9 membrane polyspecificity reagent, FACS + sequencing; frameworks hold sequencing errors. Put shortly:
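A nanobody's polyreactivity label depends on the gate it was sorted from. Yeast display cells were stained with 10% biotinylated, detergent-solubilized Sf9 membrane reagent for 1 hour at 4 °C, enriched on streptavidin microbeads and sorted by FACS. The low and high (top ~1%) gates were set on anti-HA fluorescence for expression and streptavidin fluorescence for reagent binding.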
Turning to “QVHLQESGGGLMQAGGNLRLSCAASGYISTHYDMDWYRQAPGKERELVARIDDGAITNYADSVKGRFTISRDNAKNTVYLQMNSLKPEDTEVYYCAVYSGDDYYHDYWGQGTQVTVSS”, the “polyreactivity (PSR sort gate)” value is “low polyreactivity”.

For the sequence “QVHLQESGGGLVQAGGSLRLSCPASGSISRYYDMGWYRQAPGKEREFVAGISGGAITYYADSVKGRFTISRDNAKNTVYLQMNSLKPEDTAVYYCAADTGVYQYHSYWGQGTQVTVSS”, the “polyreactivity (PSR sort gate)” value is reported as “low polyreactivity”. For “QVHLVDSAGGLVQAGGNLSLSCEASGSIFRAYAMGWYRQAQGKERELVADISRSGGSTYYAESVKGRFTISRDNAKNTVYLQRNSLKPEDTAVSYGAAVFYLFSNLYGEYDYWGQGTQVTVSS” the value was “low polyreactivity”; for “QVHLVDSGGGLVQAGGSLRLSSAASGRIFPFYAMGWYRKAPGKERELVAAITSSGGRTYYADSVKGRFTISRDNAKNTVYLQMNSLKPEDTAVYYCAASLVGPFIYSHLYDYWGQGTQVTVSS”, “low polyreactivity”; for “QVHLVDSGGGLVQAGGSLSLSCAYSGSIFLTNAMGWYRHAPGKERELVDAITGDGSTNYADSVKGRFTISRDNAKNTVYLKMNSLIPEDTAVYYCDKDRGWSQWVDYDYWGQGTQVTVSS”, “low polyreactivity”. For “QVHLVDSGRGLVQAGGSLRLSCAASGSTFAEYVMGRYRQAPGKERELVASIDSGGGTNYADSVKGRFTISRDNAKNTVYLQMNSLKPEDTAVYYCAASGRDIGGYDYWGHGTQVTVSS”, the “polyreactivity (PSR sort gate)” value was “low polyreactivity”. Next, “QVHLVDTGGGLVKAGGSLRLSSAASGSTFEYYSMGWYRQEPGKERQLVPSISSGGSTNYADSVKGRFTISRDNAKNTVYLQMNSLKPEDTAVYYCAAEFAVSFYWSWLGQDYNFWGLGTQVTVSS”: “high polyreactivity”. Next, “QVHLVESAGGLVQAAASLRLTCSASGNTLGSYAMGWYIQAPGKETKFVATISKRGGSTYYADSVKGRFTISRDNAKNTVYFQMNSLKPEDSAVYYCAAEDEYYGGDEYWGQGTQVTVSS”: “high polyreactivity”; “QVHLVESAVRLVQAGGSLRLSCAAPGFTFFSNARGWYRQAHGKERELFASITNDGSTYADSVKGRFTISRDNAMNTVYLQMTSLKPEDTAVYYCAARVPQWRYSRRTRERFDFWGQGTQVTVSS”: “low polyreactivity”; “QVHLVESGGALVQAGGSLRLSCAASGRIFGGYTMGWYRQAPGKEREFVAAITSSGGSTYYADSVKGRFTISRDNAKNTVYLQMNSLKPEDTAVYYCAVDDYYYDYDYWGQGTQVTVSS”: “low polyreactivity”. Turning to “QVHLVESGGCLVQAGGSLRLSCAASGRIFGLYAMGWYRPAPGKESELVAAISEGGGSTNYADSVKWRFTISRDNAKNTVYLQMNILKPEDTAVYYCAATYRTGVRRYYSWGQGTQVTVSS”, the “polyreactivity (PSR sort gate)” value is “low polyreactivity”. Take “QVHLVESGGCLVQAGGSLRLSCAASGSTFSRYAMVWYRQAPGKEREYVAGISWSGGNTYYADSVKGRFTISRDNAKNTVYLQMNSLKTEATAVYYCASDFLDYWGVYGWAEYEYWGQGTQGTVSS”: the “polyreactivity (PSR sort gate)” value is “low polyreactivity”. For the sequence “QVHLVESGGCLVQAGGTLRLSCAATGSIFYNYDMRWYRQAPGKEREFVAAITWSGTSTYYADSVKGRFTISRDNAKNTVYLQMNSLKPEDSAVYYCNALVRRRPGYIRYDYWGQGTQVTVSS”, the “polyreactivity (PSR sort gate)” value is recorded as “low polyreactivity”. Consider “QVHLVESGGGIVQAGGSLRLSCAASGFTFRRYAMGWYRQAAGKERELVATITKGGGRTYYADSVKGRFTISRDNAKNTVYLQMNSLKPEDTAVFYCNASLTYDYNYWGPGTQVTVSS”, for which the “polyreactivity (PSR sort gate)” value was “high polyreactivity”. For the sequence “QVHLVESGGGIVQAGGSLRLSCAASGRTFVVYAMGWYRPATGKQLELVAAIRRIDGRTYYADSVKGRFTISRDNAKNTVYLQMNCLKPEDTAVYYCAADWVGATGYLYGYWGQGNQVTVSS”, the “polyreactivity (PSR sort gate)” value is on record as “low polyreactivity”. Take “QVHLVESGGGLFQAGGRLRLSCAAAGSTFPKYARGWYRQAPGKERELVAAISWSGDSTNYADSVKGRITISRDNAKNTVYVQMNSLKPEDTAVYYCAAYNFIHAGPWEYDYWGQGTQVTVSS”: the “polyreactivity (PSR sort gate)” value is on record as “low polyreactivity”. For “QVHLVESGGGLFQAGGSLRLIFAASGLIFYKNAMGWYRQAPGKERELVAISSSGGSTYYADSVKGRFTISRDNAKNSVYLQMHSLKPEDSAVYYCAARSRRYGGGYWGQGTQVTVSS” the value was “high polyreactivity”; for “QVHLVESGGGLFQAGGSLRLSCAASGGIFSIYAMGWYRQAPGKERELVAAISTSGGSTYYADSLKGRFTISRDNAKNSVYLQMNSLKPEDTAVYYCNARRGFYWSWRGRYISGDYWGQGTQVTVSS”, “high polyreactivity”. On to “QVHLVESGGGLGHAGGSLLLSCAASGSIFGRNAMGWYRQAPGKERELVADIWNGGSTYYADSVKGRFTISRDNAKNTVYLQMNILKPEDTAVYYCNADANDDGRFGGYIKYDYWGQGTQVTVSS”, for which the “polyreactivity (PSR sort gate)” value was “low polyreactivity”. For the sequence “QVHLVESGGGLGKAGGSLRLTCAASGSTFKYYAMAWYRQAPGKETELVAAISQRGGSTYYADSVKGRFTISRYNAKNTVYLQMNCLKPEDTAVYYCNAGFQRAYSGPGYDMDYWGQGTQVTVSS”, the “polyreactivity (PSR sort gate)” value is listed as “high polyreactivity”. Turning to “QVHLVESGGGLLQAGGSLRLSCAASGRTFGHNAMGWNRQAPGKERELVAAISSGGNTYYADSVKGRFTISRDNAKNTVYLQMNSLKPEDTAVYYCAAVTVIGGEYDYWGQGTQVTVSS”, the “polyreactivity (PSR sort gate)” value is “low polyreactivity”. Take “QVHLVESGGGLLQAGGSLRLSCAASGTIYGVYAMGWYRQAPEKEGELVAAISWTDGTTYYADSVKGRFTISRDNAKNTVYLQINSLKPEDTAVYYCAAEADVPPYLFGYWGQGTQVTVSS”: the “polyreactivity (PSR sort gate)” value is “high polyreactivity”. As for “QVHLVESGGGLVHAGGSLRLSCAASGSTFPGYGMGWYRQAPGQERELVATNRNGGITNYADSVKGRFTISRDNAKNTVYLQMNSLKAEDTAVYYCAADVVQYLYYFRLDYWGQGTQVTVSS”, the “polyreactivity (PSR sort gate)” value is listed as “low polyreactivity”. For “QVHLVESGGGLVKAGGSLRLSCAASGRIFDNYVMGWYRQAPGKERELVAAISSGGGTYYADSVKGRFTISLDNAKNTVYLQMNSLKPEDTAVYYCAAAAYYADFDYWGQGTQVTVSS” the value was “low polyreactivity”; for “QVHLVESGGGLVNAGGTLRLSCAASGSTYSRYAMGWYRQAPVKESELVAAITRSGGSTYYADSVKGRFTISRDNAKNTVYLQMNSLKPEDTAVYYCNRPRLYGGSPYYYWGQGTQVTVSS”, “high polyreactivity”.

For the sequence “QVHLVESGGGLVQAGCSLRLSCAASGSTISRYAMGWNRQAPGKETELVATITGGGRTYYADSVKGRFTISRDNAKNTVYLQMNSLKPEDTAVYYCAVRGYHQYKYGYWGQGTQVTVSS”, the “polyreactivity (PSR sort gate)” value is recorded as “high polyreactivity”.

Consider “QVHLVESGGGLVQAGCSLRLSCAASGSTSASYAMGCDRQAPGKERELVAAISGRGTTTYYADSVKGRFTISRDNAKNTVYLQMNSLKPEDTAVYYCAVYRRGGVEAFLYWGQGTQVTVSS”, for which the “polyreactivity (PSR sort gate)” value is “high polyreactivity”.

Turning to “QVHLVESGGGLVQAGCSLRLSSSASGFTFVRNAMGWYRQAPGKERELVAAISKSGGRTYYTDSVKGRFTISRDNAKNSVYLHLNSLIPEDTAVYYCASDPVSDYYGYGYWGQGTQVTVSS”, the “polyreactivity (PSR sort gate)” value is “high polyreactivity”. As to “QVHLVESGGGLVQAGGCLRLSCAASGYIFKSYVMGWYRQAPGKERELVAAITWSGGSTYYADSVKGRFTMSRDNAKNTVYFQMNSLKPEDTAVYYCAAYPRRYRTTYDYWRQGTQVTVSS”, the “polyreactivity (PSR sort gate)” value is “high polyreactivity”. Next, “QVHLVESGGGLVQAGGRLRLSCAASGRIFGTNAMGWYRQAPGKERELVATITRGGGNTYYADSVKGRFTISRDKAKNTVYLQRNSLKPEDTAVYYCAAKFHRFAWFSHYDYWGQGTQVTVSS”: “low polyreactivity”.
